Results: the supplement of paper PMC9732359
± gives the uncertainty stated by the source.

Test: protein stability index of a GFP-peptide fusion (yeast GPS) (PSI 1-4); higher = more stable; sorted into four equal gates, so the index is relative within each strain
Summary of the method: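 Tiled 17-residue peptides from yeast proteins were fused downstream of GFP on a plasmid that also expresses Cherry, and the pooled library was carried in yeast. Mid-log cultures grown in leucine-free medium were sorted into four equal gates by GFP/Cherry fluorescence ratio. Plasmids from each gate were PCR-amplified and Illumina-sequenced, and reads were assigned to strains by barcodes. Each peptide's protein stability index is the sum, over gates, of the gate's read frequency multiplied by its gate number.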

Sequence	protein stability index (doa10∆)	protein stability index (pdr5∆)	protein stability index (san1∆)	protein stability index (ubr1∆)
FQYVIDESSGTSRIDEE [SMC4]	2.93 ± 0.082	2.86 ± 0.09	2.05 ± 0.15	3.23 ± 0.13
DFISPELIIDKVTCSSN [MED1]	1.69 ± 0.1	1.75 ± 0.099	1.82 ± 0.22	1.37 ± 0.09
RDGGLRLGEMERDCVIA [RET1]	3.15 ± 0.18	3.3 ± 0.12	2.54 ± 0.13	3.34 ± 0.095
ATPSAKEASQEDDNNNV [YLR335W/NUP2]	2.57 ± 0.058	2.62 ± 0.056	2.76 ± 0.051	2.73 ± 0.05
SELNEGNLSKREIQIDA [SRB8]	2.69 ± 0.062	2.88 ± 0.073	2.98 ± 0.069	2.12 ± 0.063
TLKIHLKKFLQEKMDPN [IRR1]	2.86 ± 0.1	3.01 ± 0.08	3.08 ± 0.084	2.82 ± 0.099
IADKTTYDKETITDLIE [SIR4]	3.3 ± 0.063	3.33 ± 0.064	3.42 ± 0.051	3.27 ± 0.05
HPSIYTQVFNILLQHKE [POP1]	2.25 ± 0.083	2.6 ± 0.074	2.41 ± 0.08	2.39 ± 0.044
LHCCIQLLMGDIPELSF [RPN3]	1.71 ± 0.048	1.73 ± 0.052	1.78 ± 0.065	1.71 ± 0.042
HSKFRSSSGNTWSLILN [YML031W/NDC1]	2.75 ± 0.1	2.72 ± 0.099	3.15 ± 0.078	3.12 ± 0.077
AHRGIRHFWGLRVRGQH [RPS18A]	2.82 ± 0.1	2.73 ± 0.083	2.44 ± 0.081	2.66 ± 0.053
STVAKNVSFVLPDEKSD [YCG1]	3.2 ± 0.058	3.16 ± 0.037	3.09 ± 0.041	3.01 ± 0.038
SLEENAMSTVTLGVVGK [SKI6]	3.22 ± 0.16	3.21 ± 0.14	3.04 ± 0.099	2.72 ± 0.11
DSKKIKVDSPDDPFMTK [GAL11]	2.55 ± 0.075	2.57 ± 0.074	2.5 ± 0.057	2.82 ± 0.04
HTGKKLMAQIFFGPTYY [RPB2]	2.64 ± 0.055	2.07 ± 0.043	1.97 ± 0.057	1.81 ± 0.029
AHCILGIGGDHAKFSPV [RPC40]	2.59 ± 0.085	2.82 ± 0.15	2.41 ± 0.12	2.85 ± 0.068
LELLNQLDGFSSDDRVK [RPT5]	3.07 ± 0.064	3.15 ± 0.056	2.96 ± 0.051	3.03 ± 0.046
GTKSNEKKDSGSSKPAF [YJL041W/NSP1]	3.21 ± 0.063	3.45 ± 0.072	3.42 ± 0.046	3.25 ± 0.069
VVEACGNIVAELAQDPQ [YCS4]	2.75 ± 0.082	3.38 ± 0.15	3.04 ± 0.1	2.12 ± 0.093
KDTPFTIYDGEAVAKYI [PRE5]	2.69 ± 0.073	2.97 ± 0.062	3.13 ± 0.089	3.12 ± 0.05
DVSRVAAVETLYQDMAA [RPL20A]	2.66 ± 0.066	2.67 ± 0.08	2.37 ± 0.089	2.09 ± 0.071
ITRFGLSKMRDSVLQLA [RPO31]	3.32 ± 0.14	2.96 ± 0.14	3.17 ± 0.08	3.44 ± 0.15
TSRKALEEVSLKWIDTA [RPL3]	1.67 ± 0.098	1.89 ± 0.094	1.82 ± 0.12	1.9 ± 0.088
GTPPMLHQRTHKQVYPL [DSN1]	2.52 ± 0.1	2.87 ± 0.069	2.77 ± 0.071	2.93 ± 0.056
SDNVSFEIQGVPPMKLA [YMR129W/POM152]	2.8 ± 0.11	3.18 ± 0.083	3.05 ± 0.062	2.86 ± 0.088
LKTLVQGPRSYFLDVKC [RPS27A]	3.08 ± 0.076	3.21 ± 0.13	2.72 ± 0.12	2.99 ± 0.075
ESDSKATLQSNEPTQKD [DSN1]	2.81 ± 0.12	2.94 ± 0.14	2.99 ± 0.071	3.02 ± 0.086

Sequence	protein stability index (doa10∆)	protein stability index (pdr5∆)	protein stability index (san1∆)	protein stability index (ubr1∆)
DHILFTKTFIFIYKKVL [SRB8]	1.49 ± 0.091	1.14 ± 0.14	1.15 ± 0.13	1.11 ± 0.044
SPMLKRIKITANNNMND [GRR1]	2.36 ± 0.055	2.4 ± 0.078	1.77 ± 0.079	2.71 ± 0.048
VLLHGASLGIGLAAMGS [RPN2]	1.82 ± 0.071	1.9 ± 0.069	1.93 ± 0.072	1.56 ± 0.065
LAAPKKLNDSQRKTVNS [POP1]	3.18 ± 0.075	2.98 ± 0.12	3.02 ± 0.065	3.34 ± 0.075
KLPLSVINVSAQRDRRY [RPS17A]	1.8 ± 0.064	1.77 ± 0.058	1.43 ± 0.23	1.66 ± 0.15
ERFQVMVLRKQKRYTVK [RPL14A]	2.37 ± 0.12	2.19 ± 0.1	2.21 ± 0.24	2.71 ± 0.11
EQISNNSNQQQNPKLFQ [SIN4]	2.96 ± 0.062	2.67 ± 0.045	3.13 ± 0.062	2.95 ± 0.052
ENGTLLVPPPRTIANQD [RPR2]	3.01 ± 0.054	3.05 ± 0.052	2.81 ± 0.05	2.99 ± 0.036
YKALRGMVSHKTARGKA [RPL16A]	2.45 ± 0.08	2.1 ± 0.06	2.51 ± 0.096	1.84 ± 0.12
KKINAKEKLIGWYHSGP [RPN8]	2.91 ± 0.085	3.13 ± 0.096	3.33 ± 0.052	3.13 ± 0.06
KLEYPHTDVSSSLEARY [RPN3]	2.76 ± 0.066	3.01 ± 0.073	2.75 ± 0.077	2.9 ± 0.086
TQMDGFDQSTNVKVIMA [RPT3]	2.28 ± 0.062	2.35 ± 0.06	1.54 ± 0.077	2.31 ± 0.061
TPMDESSYDLLFNESFI [SRP72]	3.07 ± 0.1	2.98 ± 0.1	2.7 ± 0.1	3.12 ± 0.052
AVSKDPLLTKRKDLRDK [DIS3]	2.97 ± 0.14	3.41 ± 0.13	2.78 ± 0.22	3.25 ± 0.14
ITIQLTRDVEPENLQVT [BRR2]	2.79 ± 0.083	3.04 ± 0.13		2.85 ± 0.078
FDKNTKTTPNTASSEAS [YMR153W/NUP53]	2.99 ± 0.051	2.98 ± 0.053	2.9 ± 0.036	2.8 ± 0.043
SVEAYLVSLFEDTNLAA [HHT1]		2.86 ± 0.26	2.59 ± 0.15	3.06 ± 0.14
TTTVLKRYANHTQDIIG [RET1]	2.04 ± 0.083	2.75 ± 0.093	3.02 ± 0.051	2.9 ± 0.055
NAAPANVTGGKAANFIQ [SWI1]	2.52 ± 0.05	1.86 ± 0.045	2.48 ± 0.086	2.46 ± 0.049
LSSGENRYAFSQPTNST [SMC4]	3.22 ± 0.14	2.96 ± 0.11		2.85 ± 0.11
LVGRLRKCETQKQWDDI [YCS4]	2.21 ± 0.069	1.74 ± 0.057	1.53 ± 0.15	1.48 ± 0.072
NRQICLVQKTVQESGNI [GRR1]	3.44 ± 0.16	3.21 ± 0.077	2.81 ± 0.064	2.69 ± 0.1
LWSIHPSRQFDHYESNQ [SRB8]	1.75 ± 0.074	2.24 ± 0.068	2.13 ± 0.11	2.64 ± 0.062
IKDSVREVGTKFTTVLA [ECM29]	2.77 ± 0.084	2.6 ± 0.07	2.22 ± 0.078	2.42 ± 0.05
PNSSANNNPLQQQSSQN [GAL11]	2.99 ± 0.051	3.03 ± 0.045	3.02 ± 0.033	2.98 ± 0.034
SLKLENSDLEGKIRGVE [SMC2]	3.23 ± 0.086	3.37 ± 0.064	3.37 ± 0.061	3.21 ± 0.05
